Data from patent publication US20160304622A1 (GENEFRONTIER, published 2016).

Key:
[1] = target: T1, peptide #36 of the human ADAMTS4 peptide array (GGKYCEGRRTRF) (human); experiment: peptide array, HRP-labeled antibody
T1 construct: Immobilized on a peptide array
T1 peptide: GGKYCEGRRTRF
Source text: (§1) To be specific, as shown in the following Table, a peptide array consisting of peptides having the residue number of 12 amino acid residues and an offset of 3 amino acid residues was produced relative to a sequence covering the thrombospondin domain of human ADAMTS4.

[2] = target: T2, peptide #37 of the human ADAMTS4 peptide array (GKYCEGRRTRFR) (human); experiment: peptide array, HRP-labeled antibody
T2 construct: Immobilized on a peptide array
T2 peptide: GKYCEGRRTRFR
Source text: as §1

[3] = target: T3, peptide #38 of the human ADAMTS4 peptide array (KYCEGRRTRFRS) (human); experiment: peptide array, HRP-labeled antibody
T3 construct: Immobilized on a peptide array
T3 peptide: KYCEGRRTRFRS
Source text: as §1

[4] = target: T4, peptide #39 of the human ADAMTS4 peptide array (YCEGRRTRFRSC) (human); experiment: peptide array, HRP-labeled antibody
T4 construct: Immobilized on a peptide array
T4 peptide: YCEGRRTRFRSC
Source text: as §1

[5] = target: T5, recombinant human ADAMTS4 (residues Phe213-Cys685, C-terminal Strep-tag II) (human, UniProt O75173 213-685); experiment: SPR (BIAcore 3000), ADAMTS amine-coupled on CM5 chip, IgG1 injected
T5 construct: Made in HEK293T cells; metalloproteinase, disintegrin, thrombospondin and cysteine-rich domains; also called recombinant ADAMTS4; not shown: Strep-tag II at the C-terminal
T5 sequence: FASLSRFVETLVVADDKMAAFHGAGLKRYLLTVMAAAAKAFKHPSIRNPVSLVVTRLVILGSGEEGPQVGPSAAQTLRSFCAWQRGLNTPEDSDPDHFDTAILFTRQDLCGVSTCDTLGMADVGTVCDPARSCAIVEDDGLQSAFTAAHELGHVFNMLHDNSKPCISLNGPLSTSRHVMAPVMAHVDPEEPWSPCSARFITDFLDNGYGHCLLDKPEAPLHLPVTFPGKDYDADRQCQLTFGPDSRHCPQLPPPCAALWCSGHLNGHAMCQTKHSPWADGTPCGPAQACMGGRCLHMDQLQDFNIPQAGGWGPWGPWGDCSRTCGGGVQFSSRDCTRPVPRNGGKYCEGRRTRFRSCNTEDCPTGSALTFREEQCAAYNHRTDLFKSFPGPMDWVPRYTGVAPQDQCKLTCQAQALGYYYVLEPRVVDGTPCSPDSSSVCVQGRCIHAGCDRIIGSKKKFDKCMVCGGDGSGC
Method: (§2) Surface plasma resonance interaction (BIAcore) analysis Recombinant ADAMTS species were covalently immobilized via amine coupling on CM5 sensor chip flow chambers (GE Healthcare Life Sciences, Buckinghamshire, UK). […] The KD (the affinity) was calculated from the determined Kₐ and Kd values.

[6] = target: T6, Recombinant ADAMTS5 protein containing the metalloproteinase, disintegrin and thrombospondin domains … (human, UniProt Q9UNA0 262-622); experiment: as above
T6 construct: Bought from R&D Systems
T6 sequence: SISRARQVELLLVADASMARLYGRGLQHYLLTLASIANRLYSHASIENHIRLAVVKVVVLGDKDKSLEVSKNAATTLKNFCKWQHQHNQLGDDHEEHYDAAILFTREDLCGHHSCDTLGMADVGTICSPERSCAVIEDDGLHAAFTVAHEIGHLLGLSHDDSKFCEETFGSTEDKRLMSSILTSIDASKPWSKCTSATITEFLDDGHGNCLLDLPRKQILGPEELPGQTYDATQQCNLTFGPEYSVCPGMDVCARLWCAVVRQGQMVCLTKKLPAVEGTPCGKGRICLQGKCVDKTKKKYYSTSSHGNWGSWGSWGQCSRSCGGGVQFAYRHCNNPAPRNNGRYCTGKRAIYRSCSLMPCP
Method: as §2

binding result [1]: binds
binding result [2]: binds
binding result [3]: binds
binding result [4]: binds
Kd [5]: 11.7 nM
Kd [6]: 1.46 nM
B1: human anti-ADAMTS antibody (IgG1; clone 237-53) (antibody, V domains shown)
VH: QVQLVQSGAEVKKPGSSVKVSCKASGGTFSSFAISWVRQAPGQGLEWMGGIFPIFGQANYAQKFQGRVTITADESTSTAYMELSSLRSEDTAVYYCARFSDWWEWQMDYWGQGTLVTVSS
VL: DIVMTQSPDSLAVSLGERATINCRSSQSILYSSNNNYLAWYQQKPGQPPKLLIHTASARESGVPDRFSGSGSGTDFTLTISSLQAEDVAVYYCQQYYSVSITFGQGTKVEIKR
notes: HRP-labeled in the peptide array
